The supplement of paper PMC9112550, “Optimization of the antimicrobial peptide Bac7 by deep mutational scanning” (BMC Biology, 2022)

Tested on: Escherichia coli TOP10
Assay: shrunken log2 fold change of peptide-encoding DNA abundance (4.5 h post-induction vs induction); higher = less antimicrobial activity (less host growth inhibition)
Conditions: time post-induction: 4.5 h; library: site-saturation at positions 5, 18, 19, 20
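Also: peptides expressed intracellularly from a pBAD plasmid library in pooled LB shake-flask culture, induced with 0.3% L-arabinose, DNA abundance read by NGS, three biological replicates, DESeq2 with apeglm shrinkage.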

Row | Sequence | shrunken log2 fold change
1 | RRIRYRPPRLPRPRPRPDSNPRP | -2.93
2 | RRIRYRPPRLPRPRPRPYQQPRP | -0.0715
3 | RRIRYRPPRLPRPRPRPNNRPRP | -0.00509
4 | RRIRCRPPRLPRPRPRPKFVPRP | -0.155
5 | RRIRNRPPRLPRPRPRPNNLPRP | -0.202
6 | RRIRHRPPRLPRPRPRPKKSPRP | -0.0145
7 | RRIRQRPPRLPRPRPRPHPDPRP | -0.0624
8 | RRIRQRPPRLPRPRPRPVEQPRP | 0.0359
9 | RRIRPRPPRLPRPRPRPHNWPRP | 0.0255
10 | RRIRPRPPRLPRPRPRPRIYPRP | 0.0335
11 | RRIRVRPPRLPRPRPRPKPWPRP | 0.376
12 | RRIRLRPPRLPRPRPRPVMTPRP | -0.148
13 | RRIRERPPRLPRPRPRPPPMPRP | 0.271
14 | RRIRSRPPRLPRPRPRPESEPRP | 0.0793
15 | RRIRFRPPRLPRPRPRPAMCPRP | -0.596
16 | RRIRTRPPRLPRPRPRPTWWPRP | 0.538
17 | RRIRWRPPRLPRPRPRPVGYPRP | 0.0334
18 | RRIRKRPPRLPRPRPRPPPFPRP | 0.442
19 | RRIRPRPPRLPRPRPRPHDHPRP | 0.0287
20 | RRIRGRPPRLPRPRPRPTSSPRP | 0.425
21 | RRIRKRPPRLPRPRPRPELVPRP | 0.133
22 | RRIRTRPPRLPRPRPRPVFSPRP | -0.648

Row | Sequence | shrunken log2 fold change
23 | RRIRWRPPRLPRPRPRPSLIPRP | -0.574
24 | RRIRDRPPRLPRPRPRPTTLPRP | 0.525
25 | RRIRERPPRLPRPRPRPDGGPRP | 0.0135
26 | RRIRLRPPRLPRPRPRPLIEPRP | 0.0414
27 | RRIRFRPPRLPRPRPRPPAVPRP | 0.713
28 | RRIRLRPPRLPRPRPRPGQVPRP | 0.318
29 | RRIRRRPPRLPRPRPRPNNHPRP | -0.374
30 | RRIRERPPRLPRPRPRPNHTPRP | -0.58
31 | RRIRVRPPRLPRPRPRPDDYPRP | -0.272
32 | RRIRWRPPRLPRPRPRPDPKPRP | -0.0134
33 | RRIRARPPRLPRPRPRPSNWPRP | 0.253
34 | RRIRNRPPRLPRPRPRPQITPRP | -1.07
35 | RRIRCRPPRLPRPRPRPRIDPRP | 0.117
36 | RRIRCRPPRLPRPRPRPWWEPRP | -0.368
37 | RRIRERPPRLPRPRPRPGDQPRP | -0.0675
38 | RRIRHRPPRLPRPRPRPHRGPRP | -0.0108
39 | RRIRGRPPRLPRPRPRPANNPRP | 0.138
40 | RRIRWRPPRLPRPRPRPEWDPRP | 1.22
41 | RRIRVRPPRLPRPRPRPEENPRP | 0.265
42 | RRIRGRPPRLPRPRPRPLKSPRP | 0.426
43 | RRIRVRPPRLPRPRPRPIKNPRP | -0.361
44 | RRIRKRPPRLPRPRPRPKAQPRP | 0.313

Row | Sequence | shrunken log2 fold change
45 | RRIRHRPPRLPRPRPRPGPDPRP | -0.227
46 | RRIRLRPPRLPRPRPRPTKNPRP | 0.00698
47 | RRIRHRPPRLPRPRPRPEWRPRP | -0.0322
48 | RRIRRRPPRLPRPRPRPMQIPRP | 0.58
49 | RRIRLRPPRLPRPRPRPAQMPRP | 0.122
50 | RRIRTRPPRLPRPRPRPFWCPRP | -0.111
51 | RRIRIRPPRLPRPRPRPFRGPRP | -0.0233
52 | RRIRARPPRLPRPRPRPLYKPRP | -0.362
53 | RRIRARPPRLPRPRPRPLWLPRP | 0.302
54 | RRIRSRPPRLPRPRPRPWWPPRP | 0.0626
55 | RRIRVRPPRLPRPRPRPSTRPRP | 0.552
56 | RRIRARPPRLPRPRPRPRDSPRP | 0.499
57 | RRIRYRPPRLPRPRPRPNMDPRP | -1.3
58 | RRIRVRPPRLPRPRPRPLWAPRP | 0.081
59 | RRIRERPPRLPRPRPRPRVHPRP | 0.0407
60 | RRIRTRPPRLPRPRPRPSPAPRP | 0.133
61 | RRIRHRPPRLPRPRPRPNSCPRP | -0.089
62 | RRIRVRPPRLPRPRPRPASWPRP | 0.294
63 | RRIRCRPPRLPRPRPRPKKYPRP | -0.485
64 | RRIRKRPPRLPRPRPRPKFAPRP | 0.764
65 | RRIRHRPPRLPRPRPRPLYQPRP | -0.112
66 | RRIRLRPPRLPRPRPRPEVRPRP | -0.0732

Row | Sequence | shrunken log2 fold change
67 | RRIRARPPRLPRPRPRPRAAPRP | 0.826
68 | RRIRIRPPRLPRPRPRPFPVPRP | -0.339
69 | RRIRTRPPRLPRPRPRPHAMPRP | -0.31
70 | RRIRNRPPRLPRPRPRPLTTPRP | -0.07
71 | RRIRPRPPRLPRPRPRPVALPRP | 0.0375
72 | RRIRVRPPRLPRPRPRPWMIPRP | -0.0467
73 | RRIRGRPPRLPRPRPRPCNHPRP | -0.402
74 | RRIRKRPPRLPRPRPRPPPNPRP | 0.982
75 | RRIRMRPPRLPRPRPRPGIVPRP | 0.332
76 | RRIRWRPPRLPRPRPRPVTCPRP | -0.00133
77 | RRIRQRPPRLPRPRPRPLIMPRP | -0.0338
78 | RRIRARPPRLPRPRPRPKKSPRP | 1.2
79 | RRIRRRPPRLPRPRPRPHEFPRP | 0.0543
80 | RRIRFRPPRLPRPRPRPDEIPRP | -0.022
81 | RRIRYRPPRLPRPRPRPHFNPRP | -1.23
82 | RRIRHRPPRLPRPRPRPVIWPRP | -0.134
83 | RRIRKRPPRLPRPRPRPSCNPRP | 0.149
84 | RRIRCRPPRLPRPRPRPDWPPRP | 0.187
85 | RRIRWRPPRLPRPRPRPECWPRP | 1.29
86 | RRIRGRPPRLPRPRPRPIWLPRP | 0.159
87 | RRIRKRPPRLPRPRPRPFLLPRP | -0.399
88 | RRIRPRPPRLPRPRPRPTTAPRP | 0.0804

Row | Sequence | shrunken log2 fold change
89 | RRIRRRPPRLPRPRPRPIKTPRP | 0.00866
90 | RRIRLRPPRLPRPRPRPKNPPRP | -0.606
91 | RRIRERPPRLPRPRPRPCIMPRP | -0.397
92 | RRIRIRPPRLPRPRPRPICRPRP | -0.107
93 | RRIRLRPPRLPRPRPRPHFGPRP | 0.0847
94 | RRIRHRPPRLPRPRPRPPKCPRP | 0.145
95 | RRIRHRPPRLPRPRPRPLDYPRP | -0.0824
96 | RRIRVRPPRLPRPRPRPVVEPRP | -0.112
97 | RRIRNRPPRLPRPRPRPYDLPRP | -0.166
98 | RRIRLRPPRLPRPRPRPRAAPRP | 0.417
99 | RRIRERPPRLPRPRPRPYAKPRP | -0.329
100 | RRIRNRPPRLPRPRPRPPQAPRP | 0.0708
101 | RRIRTRPPRLPRPRPRPEIFPRP | -0.303
102 | RRIRTRPPRLPRPRPRPRWVPRP | 0.216
103 | RRIRPRPPRLPRPRPRPFNTPRP | 0.39
104 | RRIRERPPRLPRPRPRPAFYPRP | -0.32
105 | RRIRMRPPRLPRPRPRPLYWPRP | 0.0465
106 | RRIRPRPPRLPRPRPRPPMAPRP | 0.338
107 | RRIRWRPPRLPRPRPRPMHQPRP | 0.067
108 | RRIRRRPPRLPRPRPRPLVNPRP | 0.0359
109 | RRIRRRPPRLPRPRPRPAGDPRP | 0.563
